Test results published in patent US20240218054A1 (MABLOC, published 2024).

Assays:
[1] = molecular target: T1, recombinant YFV E protein (soluble E, sE; YFV Asibi strain) (Yellow fever virus, Asibi strain, UniProt Q6DV88 286-678); experiment: BLI monovalent (IgG on tip)
T1 construct: also called YFV E antigen; YFV E monomer

[2] = molecular target: T2, recombinant YFV-17D DIII protein (Yellow fever virus, strain 17D, UniProt P03314 578-682); experiment: BLI, recombinant YFV-17D DIII protein
T2 construct: also called domain III
T2 sequence: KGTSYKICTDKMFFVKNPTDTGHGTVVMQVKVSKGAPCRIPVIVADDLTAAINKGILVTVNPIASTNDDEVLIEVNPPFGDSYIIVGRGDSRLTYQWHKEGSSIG

T1 sequence (Q6DV88 286-678): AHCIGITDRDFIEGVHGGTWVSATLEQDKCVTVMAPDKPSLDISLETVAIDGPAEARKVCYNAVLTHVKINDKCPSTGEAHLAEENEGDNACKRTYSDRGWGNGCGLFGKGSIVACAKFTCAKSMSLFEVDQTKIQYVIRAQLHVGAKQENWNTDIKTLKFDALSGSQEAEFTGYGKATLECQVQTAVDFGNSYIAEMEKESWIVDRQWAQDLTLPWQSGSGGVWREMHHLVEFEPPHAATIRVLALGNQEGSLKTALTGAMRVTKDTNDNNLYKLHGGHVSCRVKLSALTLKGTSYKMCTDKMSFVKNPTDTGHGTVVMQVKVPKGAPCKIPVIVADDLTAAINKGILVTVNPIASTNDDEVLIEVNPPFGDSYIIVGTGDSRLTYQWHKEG

B1: ADI-49147 (antibody, V domains shown)
VH: QVQLQESGGDLVQPGGSLRLSCAASGFTFSNYAMNWVRQAPGKGLEWVSAINRGGDSTYYADSVKGRFTISRDNSKNTLYLQMNSLRAEDTAVYYCAKDHGGKYGWWYFDLWGRGTLVTVSS
VL: DIRVTQSPATLSVSPGERATLSCRASQSVSSNLAWYQQKPGQAPRLLIYDASNRATGIPVRFSGSGSGTDFTLTISSLQSEDFAVYYCQQYDNWPLTFGGGTKVEIK
notes: full-length IgG; also called Antibody Number 2
Kd [1]: 3.73 nM
binding result [2]: binds

B2: ADI-45090 (antibody, V domains shown)
VH: EVQLVESGGGLVQPGRPLRLSCAASGFAFSSYGMHWVRQAPGKGLEWVALIRFDGTIKYYADSVKGRFTISRDNAKNTLYLQMSSLRAEDTAVYYCARDLEVGAEYLYYHYGMDVWGQGTTVTVSS
VL: QPVLTQPPSASGTPGQRVTIFCSGSRSNIGTYTINWYQKLPGTAPKLLIYSNNRGPSGVPDRFSGSQSGTSASLAISGLQPEDEADYYCAAWDDSLNGWVFGGGTKVTVL
notes: full-length IgG; also called Antibody Number 4
Kd [1]: 2.11 nM
binding result [2]: binds

B3: ADI-45113 (antibody, V domains shown)
VH: QVQLVQSGGGLVQPGGSLRLSCAASGFTFSSYAMSWVRQAPGKGLEWVSAISGSGGSTYYADSVKGRFTISRDNSKNTLHLQMSSLRAEDTAVYYCAKDPKYSSGWWAFDYWGQGTLVTVSS
VL: EIVMTQSPATLSVSPGERATLSCRASQSVSSNLAWYQQKPGQAPRLLIYGASTRATGIPARFSGSGSGTEFTLTISSLQSEDFALYYCQQYDDWPLFGQGTRLEIK
notes: full-length IgG; also called Antibody Number 20
Kd [1]: 253 nM
binding result [2]: binds

B4: ADI-45075 (antibody, V domains shown)
VH: EVQLLESGGGLVQPGGSLRLSCAASGFTFSSYAMSWVRQAPGKGLEWVSVISDSGGSTYYADSVKGRFTISRDNSKNTLYLQMNSLRAEDTAVYYCAKDLRGVGGWYYFDYWGQGTLVTVSS
VL: EIVLTQSPSSLSASVGDRVTITCQASQDISNFLNWYQQKPGKAPKLLIYDASSLETGVPSRFSGSGSGTDFTFTISSLQPEDIATYYCQQYDNLPLTFGGGTKLEIK
notes: full-length IgG; also called Antibody Number 45
Kd [1]: 26.1 nM
binding result [2]: binds

B5: ADI-45076 (antibody, V domains shown)
VH: EVQLVESGGGFVQPGGSLRLSCAASGFIFSDYYMDWVRQAPGKGLEWVGRIRNKPNSYTTEYAASVKGRFSISRDDLKNSLYLQMNSLKTEDTAEYYCARVDGEEVALIYWGQGALVTVSS
VL: DIQMTQSPSSLSASVGDRVTITCRASQTITRYMNWYQQKPGEAPKLLIYATSSLQSGVPSRFSGSGSGTDFTLTITNLQPADFATYYCQQSSTTRWTFGQGTKVDIK
notes: full-length IgG; also called Antibody Number 97
Kd [1]: 0.882 nM

B6: ADI-48968 (antibody, V domains shown)
VH: EVQLLESGGGLGQPGGSLRLSCVASKFTFSDHYMDWVRQAPGKGLEWVGRIRNKPNGYTTEYAASVKGRFIISRDDSKNSLYLQMKSLKIEDTAIYYCVRVWGGEAARYDYWGQGALVTVSS
VL: DIRLTQSPSSLSASVGDRVTITCRASQDIRKFLNWYQQKLGKAPSLLIYGASSLQSGVPSRFSGSGSGTDFTLTISSLQPEDFAIYYCQHASTTPWTFGQGTKVEIK
notes: full-length IgG; also called Antibody Number 98
Kd [1]: 0.963 nM

B7: ADI-42212 (antibody, V domains shown)
VH: EVQLVESGGGLVQPGGSLRLSCAASGFTFSDHYMDWVRQAPGKGLEWVGRSRNKPNSYITEYAASVKGRFTISRDDSKNSLYLQMNSLKTEDTAVYYCSRHMGFGLDLWGQGTLVTVSS
VL: SYELTQPPSVSVSPGQTATITCSGDKLGYTYTCWYQQKPGQSPVLVIYQDTKRPSGIPERFSGSNSGNTATLTITGTQAMDEADYYCQAWDTTTAGGVFGGGTKLTVL
notes: full-length IgG; also called Antibody Number 99
Kd [1]: 0.884 nM
